Measured values published in the supplement of paper PMC10567573.

B1: SPSB1 (parent)
chain: DMRDPTYRPLKQELQGLDYCKPTR
B2: TMEM40 (parent)
chain: YGETDFHKQDGKAGLFSQEQYERN

Variants of: B1
Assay: protein stability index of a GFP-peptide fusion (GPS, HEK-293T) (PSI 1-6); higher = more stable
Details: c terminus: a fixed tail appended
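Further: lentivirally expressed fusions sorted by FACS into six bins by GFP to DsRed ratio, PSI derived from sequencing read proportions per bin multiplied by bin number.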

Protein stability index, by site and new letter:
R3: I 2.96, N 3.19, E 3.84, F 2.92, A 3.16, M 2.99, G 3.21, D 2.59, L 2.9, H 3.08, C 2.9, K 3.2
M2: A 3.22, C 3.01, H 3.64, G 3.78, K 3.13, E 3.51, D 3.86, T 2.64, P 4.62, L 3.01, V 3.02, F 3.42, Y 2.72, N 3.38, S 3.77, W 2.57, R 3.71, I 3.19, Q 3.26
D1: R 3.32, C 3.94, G 2.65, P 3.82, T 3.62, I 2.57, W 1.78, L 2.36, M 3.39, E 3.53, N 3.12, Y 2.99, H 2.94, F 3, A 2.45, S 3.02, K 3.06, Q 2.83

Variants of: B2
Assay: as above
Details: c terminus: a fixed tail appended

Protein stability index of substitutions, site by site:
D10: H 2.77, C 2.46, K 3.44, W 2.27, Q 2.9, E 3.72, S 2.96, P 3.12, V 2, G 3.24, T 3.04, M 1.47, I 1.92, Y 2.85, F 2.26, R 3.37, L 2.09, N 3.92
Q18: D 4.5, N 3.66, E 4.6, V 3.36, P 2.05, S 3.3, K 4.55, H 4.29, W 3.45, F 3.65, I 3.58, A 3.66, M 3.23, R 3.83, Y 3.4, T 3.41, C 2.82, L 3.81, G 4.26
K12: Q 4.21, A 4.25, C 4.35, W 3.21, L 3.66, N 4.78, V 4.49, I 3.93, P 4.38, S 4.86, G 4.19, M 4.14, R 4.1, F 4.21, Y 3.99, T 4.5, E 4.82, D 4.86, H 4.28
Q20: Y 3.71, T 4.15, N 4.12, E 4.45, C 3.5, V 3.66, F 3.41, S 4.3, M 3.92, R 3.92, D 4.71, W 3, G 3.48, P 3.55, I 3.85, L 3.42, H 4.01, A 4.32, K 3.79
Q9: T 3.85, Y 3.37, W 2.99, V 3.6
G11: Y 3.75, H 4.16, Q 4.04, C 3.77, T 3.68, P 3.46, I 3.9, S 4.55, W 3.2, R 4.08, N 4.32, M 4.58, D 4.5, E 4.68, K 4.16, A 4.25, V 4.21, F 3.86
F16: H 5.06, N 4.91, T 4.58, L 4.47, K 4.38, Y 5.04, P 5.02, M 4.53, W 3.08, D 5.25, E 4.3, R 4.81, I 4.58, G 4.84, V 4.65, Q 5.1, A 4.97, C 3.78, S 4.88
N24: S 4.22, A 3.63, F 3.8, K 4.6, L 4.16, W 3.99, I 3.54, P 3.25, D 4.4, C 3.98, V 3.67, M 3.89, H 3.88, E 4.54, Q 4.09, Y 3.85, T 3.89, G 4.12
S17: M 3.97, V 4.08, W 1.97, F 3.1, Y 3.66, D 3.98, T 3.81, K 3.44, N 4.52, C 4.07, L 3.35, Q 4.48, E 4.51, I 3.81, A 3.79, H 3.54, R 4.27, G 3.94, P 4.03
A13: C 3.28, F 3.83, R 3.96, S 3.83, D 4.28, H 4.21, M 3.65, K 4.04, T 4.28, I 4.03, W 3.87, Y 3.41, G 4.08, V 4.27, N 4.54, L 4.07, P 3.54, Q 3.93, E 4.33
E22: V 3.76, W 2.74, C 3.61, G 3.83, Q 3.8, P 3.48, D 4.03, F 3.19, L 3.61, A 3.91, T 4.01, N 3.85, H 3.34, Y 3.23, I 3.29, K 3.67, R 3.71, M 3.64
E19: A 3.54, G 3.66, I 2.23, C 3.48, N 3.9, Y 3.15, F 2.54, D 4.45, H 3.29, K 3.23, M 3.15, V 3.22, P 3.72, L 2.21, S 3.6, R 3.49, W 2.64, T 3.73, Q 3.7
R23: M 4.17, I 4.11, S 4.37, Y 4.02, G 4.58, P 4.21, D 4.9, L 4, T 4.62, K 4.37, C 4.32, E 4.7, Q 4.3, A 4.69, H 4.3, V 3.67, N 4.16, W 4.13, F 4.04
Y21: M 3.92, I 4.65, T 5.02, Q 4.44, D 4.95, R 5.25, P 4.32, H 4.73, L 4.07, G 4.8, C 3.95, W 4.09, K 4.54, A 4.04, V 4.38, E 4.35, F 4.25, N 4.47, S 4.63
G14: L 3.86, Q 4.29, D 4.79, P 4.34, K 4.32, F 3.69, E 4.63, T 4.06, R 3.84, N 4.47, V 4.09, H 4.06, I 3.93, W 2.72, M 4.45, A 4.02, S 4.68, C 4.18, Y 3.74
L15: D 5.02, N 4.5, A 4.39, F 3.32, V 4.18, I 4.08, S 5.04, T 4.55, G 4.73, K 4.49, H 4.02, C 4.38, E 4.66, Q 4.51, Y 3.84, W 3.8, P 4.89, R 4.43, M 4.27
